Numbering of substitutions follows the chain as printed.
T1: human PAC1 receptor (human, UniProt P41586 21-468)
T1 sequence: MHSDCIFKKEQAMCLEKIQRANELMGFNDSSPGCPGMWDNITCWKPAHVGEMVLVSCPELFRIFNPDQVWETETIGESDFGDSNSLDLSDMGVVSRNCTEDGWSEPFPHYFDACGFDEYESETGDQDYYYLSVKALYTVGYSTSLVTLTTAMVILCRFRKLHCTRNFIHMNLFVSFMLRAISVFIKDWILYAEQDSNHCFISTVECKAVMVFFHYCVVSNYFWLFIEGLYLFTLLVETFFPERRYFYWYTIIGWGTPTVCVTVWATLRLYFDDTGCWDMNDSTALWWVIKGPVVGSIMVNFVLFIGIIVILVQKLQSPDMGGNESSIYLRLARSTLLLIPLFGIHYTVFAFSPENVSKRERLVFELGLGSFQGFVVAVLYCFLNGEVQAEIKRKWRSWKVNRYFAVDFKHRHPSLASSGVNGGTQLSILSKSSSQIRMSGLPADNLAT

B1: iPS:327879 (bispecific antibody, human IgG1, kappa, lambda, N297G)
light 1: not shown
heavy 1: not shown
light 2: QSVLTQPPSVSAAPGQKVTISCSGSSSNIGNNYVSWYQQLPGTAPKLLIYDNNKRPSGIPDRFSGSKSGTSTTLGITGLQTGDEADYYCGTWDSRLSAVVFGGGTKLTVLGQPKANPTVTLFPPSSEELQANKATLVCLISDFYPGAVTVAWKADGSPVKAGVETTKPSKQSNNKYAAKSYLSLTPEQWKSHRSYSCQVTHEGSTVEKTVAPTECS
heavy 2: QVQLVESGGGVVQPGRSLRLSCAASGFTFSSFGMHWVRQAPGKGLEWVAVISFDGSIKYSVDSVKGRFTISRDNSKNTLFLQMNSLRAEDTAVYYCARDRLNYYESSGYYHYKYYGMAVWGQGTTVTVSSASTKGPSVFPLAPSSKSTSGGTAALGCLVKDYFPEPVTVSWNSGALTSGVHTFPAVLQSSGLYSLESVVTVPSSSLGTQTYICNVNHKPSNTKVDKKVEPKSCDKTHTCPPCPAPELLGGPSVFLFPPKPKDTLMISRTPEVTCVVVDVSHEDPEVKFNWYVDGVEVHNAKTKPCEEQYGSTYRCVSVLTVLHQDWLNGKEYKCKVSNKALPAPIEKTISKAKGQPREPQVYTLPPSRKEMTKNQVSLTCLVKGFYPSDIAVEWESNGQPENNYKTTPPVLKSDGSFFLYSKLTVDKSRWQQGNVFSCSVMHEALHNHYTQKSLSLSPGK
B2: iPS:327884 (bispecific antibody, human IgG1, kappa, lambda, N297G)
light 1: not shown
heavy 1: not shown
light 2: B1 light 2 with T72A
heavy 2: B1 heavy 2 with E105D
B3: iPS:327894 (bispecific antibody, human IgG1, kappa, lambda, N297G)
light 1: not shown
heavy 1: not shown
light 2: B1 light 2 with T72A
heavy 2: B1 heavy 2
B4: iPS:327892 (bispecific antibody, human IgG1, kappa, lambda, N297G)
light 1: not shown
heavy 1: not shown
light 2: B1 light 2 with T72A, G75A
heavy 2: B1 heavy 2 with E105D, E370K
B5: iPS:327891 (bispecific antibody, human IgG1, kappa, lambda, N297G)
light 1: DIQMTQSPSSLSASVGDRITITCRASQSISRYLNWYQQKPGKAPKLLIYAASSLQSGIPSRFSGSGSGTDFTLTINSLQPEDFATYFCQQSYSPPFTFGQGTKVDIKRTVAAPSVFIFPPSDEQLKSGTASVVCLLNNFYPREAKVQWKVDNALQSGNSQESVTEQDSKDSTYSLESTLTLSKADYEKHKVYACEVTHQGLSSPVTKSFNRGEC
heavy 1: not shown
light 2: B1 light 2 with T72A, G75A
heavy 2: B1 heavy 2 with E105D, E370K
B6: iPS:327882 (bispecific antibody, human IgG1, kappa, lambda, N297G)
light 1: not shown
heavy 1: not shown
light 2: B1 light 2
heavy 2: B1 heavy 2 with E370K
B7: iPS:327883 (bispecific antibody, human IgG1, kappa, lambda, N297G)
light 1: B5 light 1
heavy 1: not shown
light 2: B1 light 2 with T72A
heavy 2: B1 heavy 2 with E105D
B8: iPS:327881 (bispecific antibody, human IgG1, kappa, lambda, N297G)
light 1: B5 light 1
heavy 1: not shown
light 2: B1 light 2
heavy 2: B1 heavy 2 with E370K
B9: iPS:327885 (bispecific antibody, human IgG1, kappa, lambda, N297G)
light 1: not shown
heavy 1: not shown
light 2: B1 light 2 with T72A, G103K
heavy 2: B1 heavy 2 with G44E, E105D
B10: iPS:327895 (bispecific antibody, human IgG1, kappa, lambda, N297G)
light 1: not shown
heavy 1: not shown
light 2: B1 light 2 with T72A, G103K
heavy 2: B1 heavy 2 with G44E
B11: iPS:327886 (bispecific antibody, human IgG1, kappa, lambda, N297G)
light 1: B5 light 1
heavy 1: not shown
light 2: B1 light 2 with T72A
heavy 2: B1 heavy 2 with E105D, E370K
B12: iPS:327893 (bispecific antibody, human IgG1, kappa, lambda, N297G)
light 1: B5 light 1
heavy 1: not shown
light 2: B1 light 2 with T72A
heavy 2: B1 heavy 2
B13: iPS:327880 (bispecific antibody, human IgG1, kappa, lambda, N297G)
light 1: not shown
heavy 1: not shown
light 2: B1 light 2 with G103K
heavy 2: B1 heavy 2 with G44E
B14: iPS:327874 (bispecific antibody, human IgG1, kappa, N297G)
light 1: not shown
heavy 1: not shown
light 2: EIVLTQSPGTLSLSPGERATLSCRASQSVSSGYLTWYQQKPGQAPRLLIYGASSRATGIPDRFSGSGSGTDFTLTISRLEPEDFAVYYCQQYGNSLSRFGQGTKLEIKRTVAAPSVFIFPPSDEQLKSGTASVVCLLNNFYPREAKVQWKVDNALQSGNSQESVTEQDSKDSTYSLKSTLTLSKADYEKHKVYACEVTHQGLSSPVTKSFNRGEC
heavy 2: not shown
B15: iPS:326666 (bispecific antibody, human IgG2, kappa)
light 1: not shown
heavy 1: QVQLQESGPGLVKPSQTLSLTCTVSGGSISSGGYYWSWIRQHPGKGLEWIGYIYYSGNTYYNPSLKSRVTISGDTSKNQFSLKLRSVTAADTAVYYCTRGGAARGMDVWGQGTTVTVSSASTKGPSVFPLAPCSRSTSESTAALGCLVKDYFPEPVTVSWNSGALTSGVHTFPAVLQSSGLYSLKSVVTVPSSNFGTQTYTCNVDHKPSNTKVDKTVERKCCVECPPCPAPPVAGPSVFLFPPKPKDTLMISRTPEVTCVVVDVSHEDPEVQFNWYVDGVEVHNAKTKPREEQFNSTFRVVSVLTVVHQDWLNGKEYKCKVSNKGLPAPIEKTISKTKGQPREPQVYTLPPSREEMTKNQVSLTCLVDGFYPSDIAVEWESNGQPENNYDTTPPMLDSDGSFFLYSDLTVDKSRWQQGNVFSCSVMHEALHNHYTQKSLSLSPGK
light 2: B14 light 2
heavy 2: QVQLVESGGGVVQPGRSLRLSCAASGFTFSSYGMHWVRQAPGKGLEWVAVIWYDGSNKYYADSVKGRFIISRDKSKNTLYLQMNSLRAEDTAVYYCARAGGIAAAGLYYYYGMDVWGQGTTVTVSSASTKGPSVFPLAPCSRSTSESTAALGCLVKDYFPEPVTVSWNSGALTSGVHTFPAVLQSSGLYSLESVVTVPSSNFGTQTYTCNVDHKPSNTKVDKTVERKCCVECPPCPAPPVAGPSVFLFPPKPKDTLMISRTPEVTCVVVDVSHEDPEVQFNWYVDGVEVHNAKTKPREEQFNSTFRVVSVLTVVHQDWLNGKEYKCKVSNKGLPAPIEKTISKTKGQPREPQVYTLPPSRKKMTKNQVSLTCLVKGFYPSDIAVEWESNGQPENNYKTTPPMLKSDGSFFLYSKLTVDKSRWQQGNVFSCSVMHEALHNHYTQKSLSLSPGK

These binders were tested against human CGRP receptor (human, UniProt Q16602 23-461; O60894 27-148) (assay: cell-based or functional assay).
Further: test concentration or dose not given here.

Sequence of human CGRP receptor (Q16602 23-461 limits assumed, chain 1 of 2): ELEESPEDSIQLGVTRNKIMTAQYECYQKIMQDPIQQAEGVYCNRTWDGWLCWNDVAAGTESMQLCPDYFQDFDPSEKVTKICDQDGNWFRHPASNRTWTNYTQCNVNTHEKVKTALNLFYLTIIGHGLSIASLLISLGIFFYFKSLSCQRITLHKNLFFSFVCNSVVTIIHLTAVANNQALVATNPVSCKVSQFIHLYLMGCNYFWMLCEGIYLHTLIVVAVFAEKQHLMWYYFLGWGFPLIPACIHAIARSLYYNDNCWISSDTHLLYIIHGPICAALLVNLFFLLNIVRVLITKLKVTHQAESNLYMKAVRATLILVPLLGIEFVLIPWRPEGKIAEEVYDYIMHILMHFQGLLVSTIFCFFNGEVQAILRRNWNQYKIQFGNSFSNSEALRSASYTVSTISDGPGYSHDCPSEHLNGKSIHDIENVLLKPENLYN
Sequence of human CGRP receptor (O60894 27-148 limits assumed, chain 2 of 2): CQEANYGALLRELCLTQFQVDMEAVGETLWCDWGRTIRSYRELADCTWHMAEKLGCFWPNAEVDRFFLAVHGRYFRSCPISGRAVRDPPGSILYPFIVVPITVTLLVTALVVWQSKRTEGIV

% inhibition of human CGRPR | Binder
81% | B1
78% | B2
80% | B3
88% | B4
80% | B5
83% | B6
77% | B7
76% | B8
73% | B9
80% | B10
72% | B11
74% | B12
87% | B13
95% | B14
74% | B15

The binders below were run against T1, human PAC1 receptor (assay: cell-based or functional assay).

% inhibition of human PAC1 | Binder
19% | B1
8% | B2
12% | B3
33% | B4
78% | B5
13% | B6
27% | B7
16% | B8
7% | B9
15% | B10
65% | B11
56% | B12
15% | B13
5% | B14
15% | B15
